Reference: PMC6467919, “Designed Mutations Alter the Binding Pathways of an Intrinsically Disordered Protein” (Scientific Reports, 2019)

Assays:
Details in all cases: both partners purified
[1] = target: T1, Human Cdc42 GTPase, wild type, residues 1-179 (human, UniProt P60953 1-179); assay: stopped-flow fluorescence; ka from kobs against [GBD]; 0.1 μM mantGppNHp·Cdc42 in one syringe, GBD in excess in the second; 50 mM sodium phosphate pH 7.0, 5 mM MgCl2, 1 mM TECP, 25 °C
T1 construct: four extra residues (Gly-Ser-Phe-Thr) from the expression vector left at the N-terminus of Cdc42; human Cdc42, residues 1-179; also called Cdc42WT; wild-type Cdc42; source: E. coli Rosetta, purified (HisTrap, TEV cleavage, second HisTrap, Superdex 75); not shown: His6, N-terminal, cleaved
T1 sequence (P60953 other isoform, or with tags, fused parts or gaps): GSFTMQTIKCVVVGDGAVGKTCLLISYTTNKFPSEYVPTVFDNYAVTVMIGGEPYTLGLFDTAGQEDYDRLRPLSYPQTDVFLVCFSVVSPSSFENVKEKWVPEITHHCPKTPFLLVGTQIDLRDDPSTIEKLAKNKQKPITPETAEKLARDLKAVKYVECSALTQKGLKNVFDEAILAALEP

[2] = target: T2, Human Cdc42 (residues 1-179) with Glu31, Asn39, Glu62, Asp63, Asp65 and Gln74 all substituted by Lys (human, UniProt P60953 1-179, Glu31 substituted by Lys | Asn39 substituted by Lys | Glu62 substituted by Lys …); assay: as above
T2 construct: four extra residues (Gly-Ser-Phe-Thr) from the expression vector left at the N-terminus of Cdc42; human Cdc42, residues 1-179, with the 6K mutations around the subsite for GBD Csub; Loaded with mantGppNHp or GppNHp; also called Cdc42_(6K); source: E. coli Rosetta, purified (HisTrap, TEV cleavage, second HisTrap, Superdex 75); not shown: His6, N-terminal, cleaved
T2 sequence (P60953 other isoform, or with tags, fused parts or gaps with the stated changes): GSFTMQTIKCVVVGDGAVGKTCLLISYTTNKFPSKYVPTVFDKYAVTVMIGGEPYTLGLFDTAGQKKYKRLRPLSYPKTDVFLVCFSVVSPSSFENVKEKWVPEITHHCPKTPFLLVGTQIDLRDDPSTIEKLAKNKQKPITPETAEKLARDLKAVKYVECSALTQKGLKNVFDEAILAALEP

[3] = target: T1, Human Cdc42 GTPase, wild type, residues …; assay: other fluorescence titration; Kd from the fluorescence difference before mixing and at equilibrium at seven [GBD] values on the stopped-flow instrument; 0.1 μM mantGppNHp·Cdc42; 50 mM sodium phosphate pH 7.0, 5 mM MgCl2, 1 mM TECP, 25 °C; kd deduced as the product of Kd and ka
[4] = target: T2, Human Cdc42 (residues 1-179) with …; assay: as above
[5] = target: T1, Human Cdc42 GTPase, wild type, residues …; assay: stopped-flow fluorescence; kd measured directly by displacement: 0.1 μM mantGppNHp·Cdc42 and 1 μM GBD mixed with 20 μM GppNHp·Cdc42; 50 mM sodium phosphate pH 7.0, 5 mM MgCl2, 1 mM TECP, 25 °C
[6] = target: T1, Human Cdc42 GTPase, wild type, residues …; assay: stopped-flow fluorescence; ka from kobs against [GBD] as in buffer, with 1 M urea added
[7] = target: T2, Human Cdc42 (residues 1-179) with …; assay: stopped-flow fluorescence; ka from kobs against [GBD] as in buffer, with 2 M urea added
[8] = target: T2, Human Cdc42 (residues 1-179) with …; assay: stopped-flow fluorescence; ka from kobs against [GBD] as in buffer, with 1 M urea added

B1: Truncated WASP GBD (residues 238-298) with the BR segment deleted (domain or fragment, human)
chain: GSIGAPSGFKHVSHVGWDPQNGFDVNNLDPDLRSLFSRAGISEAQLTDAETSKLIYDFIEDQG
notes: two extra residues (Gly-Ser) from the thrombin recognition site left at the N-terminus of GBD; also called GBDΔBR; source: E. coli Rosetta, purified (GSTrap, thrombin, 70 °C heat step, Superdex 75); not shown: GST, N-terminal, cleaved
For B1, the kon [1] was 40000 M⁻¹ s⁻¹, the kon [2] was 4.03e+06 M⁻¹ s⁻¹ and the “fold increase in kd relative to GBDWT” value [3] was 10 fold. The “fold weakening in binding affinity relative to GBDWT” value [3] was 1420 fold, the “fold decrease in kd relative to Cdc42WT” value [4] was 16 fold and the “fold increase in binding affinity relative to Cdc42WT” value [4] was roughly 1500 fold.

B2: GTPase-binding domain (GBD) of the Wiskott-Aldrich Syndrome protein (WASP), wild type, residues 228-298 (domain or fragment, human)
chain: GSSGKKKISKADIGAPSGFKHVSHVGWDPQNGFDVNNLDPDLRSLFSRAGISEAQLTDAETSKLIYDFIEDQG
notes: two extra residues (Gly-Ser) from the thrombin recognition site left at the N-terminus of GBD; 15N labelled for the NMR experiment; also called GBDWT; wild-type GBD; source: E. coli Rosetta, purified (GSTrap, thrombin, 70 °C heat step, Superdex 75); not shown: GST, N-terminal, cleaved
B2 showed a kon [1] of 5.53e+06 M⁻¹ s⁻¹, a kon [2] of 2.14e+07 M⁻¹ s⁻¹ and a Kd [3] of 114 ± 9 nM. The koff [3] was 0.63 s⁻¹, the koff [5] was 0.696 ± 0.011 s⁻¹ and the “fold decrease of ka at 1 M urea relative to no urea” value [6] was 1.6 fold.

B3: WASP GBD (residues 228-298) with the 3A mutations plus Arg273 to Glu and Gly275 to Asp (domain or fragment, human)
chain: GSSGAAAISKADIGAPSGFKHVSHVGWDPQNGFDVNNLDPDLRSLFSEADISEAQLTDAETSKLIYDFIEDQG
notes: two extra residues (Gly-Ser) from the thrombin recognition site left at the N-terminus of GBD; also called GBD_(3A/ED); source: E. coli Rosetta, purified (GSTrap, thrombin, 70 °C heat step, Superdex 75); not shown: GST, N-terminal, cleaved
In the case of B3, the “fold reduction of ka relative to GBD3A” value [1] is reported as 2.5 fold and the “fold increase of Kd relative to GBD3A” value [3] is reported as 3.7 fold.

B4: WASP GBD (residues 228-298) with Lys230Lys231Lys232 substituted by Ala (domain or fragment, human)
chain: GSSGAAAISKADIGAPSGFKHVSHVGWDPQNGFDVNNLDPDLRSLFSRAGISEAQLTDAETSKLIYDFIEDQG
notes: two extra residues (Gly-Ser) from the thrombin recognition site left at the N-terminus of GBD; 15N labelled for the NMR experiment; also called GBD3A; source: E. coli Rosetta, purified (GSTrap, thrombin, 70 °C heat step, Superdex 75); not shown: GST, N-terminal, cleaved
In the case of B4, the kon [1] is reported as 920000 M⁻¹ s⁻¹, the kon [2] is reported as 1.09e+07 M⁻¹ s⁻¹ and the “fold increase in kd relative to GBDWT” value [3] is reported as 2 fold. For the same binder, the “fold weakening in binding affinity relative to GBDWT” value [3] was 13 fold, the “fold decrease in kd relative to Cdc42WT” value [4] was 121 fold and the “fold higher affinity than GBDWT-Cdc42WT” value [4] was roughly 100 fold. For the same binder, the “fold increase in binding affinity relative to Cdc42WT” value [4] was roughly 1500 fold, the “fold decrease of ka at 2 M urea relative to no urea” value [7] was 9.2 fold and the “fold decrease of ka at 1 M urea relative to no urea” value [6] was 3.1 fold. For the same binder, the “fold decrease of ka at 1 M urea relative to no urea” value [8] was 3.5 fold.

B5: WASP GBD (residues 228-298) with Lys230Lys231Lys232 changed to Glu (domain or fragment, human)
chain: GSSGEEEISKADIGAPSGFKHVSHVGWDPQNGFDVNNLDPDLRSLFSRAGISEAQLTDAETSKLIYDFIEDQG
notes: two extra residues (Gly-Ser) from the thrombin recognition site left at the N-terminus of GBD; also called GBD3E; source: E. coli Rosetta, purified (GSTrap, thrombin, 70 °C heat step, Superdex 75); not shown: GST, N-terminal, cleaved
In the case of B5, the kon [1] is reported as 97000 M⁻¹ s⁻¹ and the “fold increase in kd relative to GBDWT” value [3] is reported as 7 fold.
